Measured values reported in patent publication US20130259876A1 (Regeneron, published 2013).
Positions count from the first letter of the chain named.

B1: H4H2538P (antibody, V domains shown)
VH: QVQLVQSGAEVKKPGASVKVSCKASGYTFTDYYMHWVRQAPGQGLEWIGWINPNSGGSNFAQKFQGRVTMTRDTSISTAYMELSRLRSDDTAVYYCARKAGYTSSWFDYWGQGTLVTVSS
VL: DIVMTQSPDSLAVSLGERATINCKSSQSVLYSFNNKNYLSWYQQKPGQPPKLLIYWASTRESGVPDRFSGSGSGTDFTLTISSLQAEDAAVYYCQQYYSMITFGQGTRLEIK
B2: H4H2526P (antibody, V domains shown)
VH: QVQLVESGGGVVQPGRSLRLSCAASGFTFSRFGMDWVRQAPGKGLEWVAVISYDGKNKLYADSVKGRFTISRDNSKNTLYMQMNSLRAEDTAVYYCAKEGDNWNFVGDSWGQGTLVTVSS
VL: DIQMTQSPSSVSASVGDRVTITCRASQDISARLAWYQQKPGKAPKLLIYAASSLQSGVPSRFSGSGSGTDFTLTISSLEPEDFATYYCQQADSFPYTLGQGTKLEIK
B3: H4H2528P (antibody, V domains shown)
VH: B2 VH with M81L
VL: B2 VL with D28G, D70Y, S77N, E79Q, D92N
B4: H4H2542P (antibody, V domains shown)
VH: EVQLVESGGGLVQPGRSLRLSCAASGFTFDDYAMHWVRQGPGKGLEWVSGISWNGRTMDHADSVKGRFTISRDNAKNSLYLQMNSLRNDDTGVYFCAKEGIPVAGTYFHFYGMDVWGQGTTVTVSS
VL: EIVMTQSPATLSVSPGERVTLSCRASQSIGNYLAWYQQKPGQAPRLLIYGTSTRATGIPARFSGSGSGTEFTLTFSSLQSEDFAVYYCQQYNHWPLTFGGGTKVEIK
B5: H4H2560P (antibody, V domains shown)
VH: QVQLVQSGAEVKKPGASVKVSCKASGYTFTGYFIHWVRQAPGQGLEWVGWINPTSGGTNYAQKFQGRVTMTRDTSISTAYMEMNSLRSDDTAVYYCARKAGYTSTWFDYWGQGTTVTVSS
VL: B1 VL with A12T, F33S, N34K, S40A, K51N, I54V, A89V
B6: H4H2562S (antibody, V domains shown)
VH: EVQLVESGGGLVQPGGSLRLSCAASGFTFTNYAMTWVRQAPGKGLEWVSTISGTGVDITYYADSVKGRFTISRDNSKNTLYLQMNSLRAEDTAVYYCAKGGLRWFPFDYWGQGTTVTVSS
VL: not shown
B7: H4H2564S (antibody, V domains shown)
VH: EVQLVESGGGLVQPGGSLRLSCAASGITFSSFVMNWVRQAPGKGLEWVSVISGSGGSTYYADSVKGRFTISRDNSKNTLYLQMNSLRAEDTAVYYCAKGGLRWFPFDYWGQGTLVTVSS
VL: not shown
B8: H4H2477N2 (antibody, V domains shown)
VH: QVQLQQWGAGLLKPSETLSLTCAVYGGSFSDYYWSWIRQPPGKGLEWIGEINHRGNTNYNPSLKSRVTISVDTSKNQFSLKLRSVTAADMAVYYCARIQLWLRGYDYYGMDVWGQGTTVTVSS
VL: DIQMTQSPSSLSASVGDRVTITCRASQGIRNDLGWYQQKPGKAPKRLIYAASSLQGGVPSRFSGSGSGTEFSLTISSLQPEDFASYYCLQHNTYPWTFGQGTKVEIK
B9: H4H2490N2 (antibody, V domains shown)
VH: QVQLVQSGADVKWPGASVKVSCRASGYTFTGYYMHWVRQAPGQGLEWMGWINPNNGGTNYAQKFQGRVTMTRDTSITTVYMELSSLISDDTAVYYCARGEDLELRNYYYYGMDVWGQGTSVTVSS
VL: DIQMTQSPSSLSASVGDRVTITCRASQSISSYLNWYQQKPGKAPKLLIYAASNLQSGVPSRFSGSGFGTDFTLTISSLQSEDFATYYCQQTYSTRTFGRGTKVEIK
B10: H4H2530S (antibody, V domains shown)
VH: EVQLVESGPGLVKPSQTLSLTCTVSGGSINSGGSYWSWIRQHPGKGLEWIGYIYSSGNTYYKPSLKSRVTISLDTSKNQFSLKMSSVTAADTAIYYCARDPRGITGTHYFDYWGQGTTVTVSS
VL: EIVLTQSPGTLSLSPGERATLSCRTSQSISNKYLAWYQQKPGQAPRLLIYGASTRATGIPDRFSGSGSGTDFTLTISRLEPEDFAVYYCQQFGTSLFTFGPGTKVEIK
B11: H4H2497N (antibody, V domains shown)
VH: QVQLVESGGGVVQPGRSLRLSCAASGFTFSTYGMDWVRQAPGKGLEWVAVISYDGRNKNYVDSVKGRFTISRDNSKNTLYLQMNSLRAEDSAVYFCAKEGGLGTWYFDLWGRGTLVTVSS
VL: not shown
B12: H4H2718N (antibody, V domains shown)
VH: EVQLVESGGGLVQPGRSLRLSCAASGFTFDEYAMHWVRQVPGKGLEWVSGISRNSGTIGYVDSVLGRFTISRDNAKNSLYLQMNSLRPEDTALYYCAKDKGWLLGMDVWGQGTTVTVSS
VL: B8 VL with G28A, G56S, S72A, S85T, H91Y, T93S, P95L, W96Y, V104L
B13: H4H2524P (antibody, V domains shown)
VH: QVQLQESGPGLVKPSQTLSLTCTVSGGSISSDGYYWSWIRQHPGKGLEWIGYIYYSGNTYYNPSLKSRVTISVDTSKNHFSLKLSSVTAADTAVYYCTRDPRGITGTHYFDYWGQGTLVTVSS
VL: B10 VL with I29V, N31S, K32S, T54S, E106D
B14: H4H2480N (antibody, V domains shown)
VH: QVQLQQWGAGLLKPSETLSLTCAVYGGSFSGYYWSWIRQTPGKGLEWIGEISHSGNNNYNPSLKSRVTMSKDTSKNQFSLKLSSVTAADTAVYYCARIQLWLRGNDYYGMDVWGQGITVTVSS
VL: B8 VL with S72T, S85T, T93S

Target: T1, scHLA-B27-mmH (engineered HLA-B*27 ectodomain in-line fusion protein) (human (HLA-B*2705, beta-2 …))
T1 construct: also called soluble HLA-B*27 fusion protein
Assay: SPR (Biacore), 25 C, PBS pH 7.2

Binder	Kd
B1	0.00037 µM
B2	0.00076 µM
B3	0.00271 µM
B4	0.0521 µM
B5	0.00125 µM
B6	0.0305 µM
B7	0.00884 µM
B8	0.044 µM
B9	0.239 µM
B10	0.000668 µM
B11	0.0223 µM
B12	0.0973 µM
B13	0.069 µM

Target: T1, scHLA-B27-mmH (engineered HLA-B*27 …)
Assay: SPR (Biacore), 25 C, PBS pH 5.75

Binder	Kd
B1	0.000641 µM
B2	0.000739 µM
B3	0.00274 µM
B4	0.488 µM
B5	0.0077 µM
B6	0.095 µM
B7	0.0748 µM
B8	0.16 µM
B14	0.129 µM
B9	0.237 µM
B10	0.0107 µM
B11	0.0339 µM
B12	0.0975 µM
B13	0.204 µM

Target: T1, scHLA-B27-mmH (engineered HLA-B*27 …)
Assay: SPR (Biacore), mAb captured, 25 C, PBS pH 7.2

Binder	Kd	t1/2
B1	0.00037 µM	69 min
B2	0.00076 µM	348 min
B3	0.00271 µM	151 min
B4	0.0521 µM	2 min
B5	0.00125 µM	16 min
B6	0.0305 µM	4 min
B7	0.00884 µM	20 min
B8	0.044 µM	20 min
B9	0.239 µM	2 min
B10	0.000668 µM	43 min
B11	0.0223 µM	23 min
B12	0.0973 µM	4 min
B13	0.069 µM	1 min

Target: T1, scHLA-B27-mmH (engineered HLA-B*27 …)
Assay: SPR (Biacore), mAb captured, 25 C, PBS pH 5.75

Binder	Kd	t1/2
B1	0.000641 µM	44 min
B2	0.000739 µM	301 min
B3	0.00274 µM	135 min
B4	0.488 µM	1 min
B5	0.0077 µM	6 min
B6	0.095 µM	2 min
B7	0.0748 µM	3 min
B8	0.16 µM	5 min
B14	0.129 µM	5 min
B9	0.237 µM	2 min
B10	0.0107 µM	15 min
B11	0.0339 µM	12 min
B12	0.0975 µM	4 min
B13	0.204 µM	2 min

Target: T1, scHLA-B27-mmH (engineered HLA-B*27 …)
Assay: SPR (Biacore), mAb captured, 25 C, HBST pH 7.4

Binder	Kd	t1/2
B1	0.000604 µM	20 min
B2	0.00208 µM	96 min
B3	0.006 µM	77 min
B4	0.058 µM	2 min
B5	0.00147 µM	6 min
B6	0.01 µM	5 min
B7	0.00357 µM	19 min
B8	0.0169 µM	11 min
B14	0.024 µM	9 min
B9	0.259 µM	1 min
B10	0.00122 µM	16 min
B11	0.0336 µM	12 min
B12	0.0449 µM	4 min
B13	0.0239 µM	2 min

Target: T1, scHLA-B27-mmH (engineered HLA-B*27 …)
Assay: SPR (Biacore), mAb captured, 37 C, HBST pH 7.4

Binder	Kd	t1/2
B1	0.00113 µM	8 min
B2	0.00391 µM	37 min
B3	0.0204 µM	17 min
B4	0.17 µM	2 min
B5	0.00196 µM	4 min
B6	0.00763 µM	4 min
B7	0.00717 µM	9 min
B8	0.047 µM	3 min
B9	0.36 µM	1 min
B10	0.00188 µM	6 min
B11	0.337 µM	3 min
B12	0.029 µM	3 min
B13	0.0268 µM	2 min

Target: T1, scHLA-B27-mmH (engineered HLA-B*27 …)
Assay: SPR (Biacore), mAb captured, 25 C, PBS pH 7.2; 25 C, PBS pH 7.2

Binder	t1/2
B14	18 min
